# Target: T1, Human CD137 ECD (human)
# T1 construct: entry includes C-terminal His-tag and biotin acceptor peptide; also called human CD137 extracellular domain; 4-1BB
# Experiment: Biacore SPR, vs parent H183/L072
# T1 sequence (chain, as listed by the source limits assumed): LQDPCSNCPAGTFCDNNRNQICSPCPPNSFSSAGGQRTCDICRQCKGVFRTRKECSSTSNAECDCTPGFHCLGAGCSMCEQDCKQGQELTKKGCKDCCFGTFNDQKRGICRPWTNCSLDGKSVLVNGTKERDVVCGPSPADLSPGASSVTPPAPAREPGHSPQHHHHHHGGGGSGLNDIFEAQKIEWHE
row,Binder,fold change of affinity [fold]
1,"H183/L072 VL S93I (antibody, name in Kabat numbering, V domains shown, Dual-Ig) VH: QVQLVESGGGLVQPGRSLRLSCAASGFTFSNAWMHWVRQAPGKGLEWVAQIKDKGNAYAAYYAPSVKGRFTISRDDSKNSIYLQMNSLKTEDTAVYYCHYVHYASASTVLPAFGVDAWGQGTTVTVSS VL: DIVMTQSPLSLPVTPGEPASISCQASQELVHMNRNTYLHWYQQKPGQAPRLLIYKVSNRFPGVPDRFSGSGSGTDFTLKISRVEAEDVGVYYCAQGTIVPFTFGQGTKLEIK",1.1
2,"H183/L072 VL T31P (antibody, name in Kabat numbering, V domains shown, Dual-Ig) VH: QVQLVESGGGLVQPGRSLRLSCAASGFTFSNAWMHWVRQAPGKGLEWVAQIKDKGNAYAAYYAPSVKGRFTISRDDSKNSIYLQMNSLKTEDTAVYYCHYVHYASASTVLPAFGVDAWGQGTTVTVSS VL: DIVMTQSPLSLPVTPGEPASISCQASQELVHMNRNPYLHWYQQKPGQAPRLLIYKVSNRFPGVPDRFSGSGSGTDFTLKISRVEAEDVGVYYCAQGTSVPFTFGQGTKLEIK",0.4
3,"H183/L072 VL S93T (antibody, name in Kabat numbering, V domains shown, Dual-Ig) VH: QVQLVESGGGLVQPGRSLRLSCAASGFTFSNAWMHWVRQAPGKGLEWVAQIKDKGNAYAAYYAPSVKGRFTISRDDSKNSIYLQMNSLKTEDTAVYYCHYVHYASASTVLPAFGVDAWGQGTTVTVSS VL: DIVMTQSPLSLPVTPGEPASISCQASQELVHMNRNTYLHWYQQKPGQAPRLLIYKVSNRFPGVPDRFSGSGSGTDFTLKISRVEAEDVGVYYCAQGTTVPFTFGQGTKLEIK",1.1
4,"H183/L072 VL S93L (antibody, name in Kabat numbering, V domains shown, Dual-Ig) VH: QVQLVESGGGLVQPGRSLRLSCAASGFTFSNAWMHWVRQAPGKGLEWVAQIKDKGNAYAAYYAPSVKGRFTISRDDSKNSIYLQMNSLKTEDTAVYYCHYVHYASASTVLPAFGVDAWGQGTTVTVSS VL: DIVMTQSPLSLPVTPGEPASISCQASQELVHMNRNTYLHWYQQKPGQAPRLLIYKVSNRFPGVPDRFSGSGSGTDFTLKISRVEAEDVGVYYCAQGTLVPFTFGQGTKLEIK",1.3
5,"H183/L072 VL T31Q (antibody, name in Kabat numbering, V domains shown, Dual-Ig) VH: QVQLVESGGGLVQPGRSLRLSCAASGFTFSNAWMHWVRQAPGKGLEWVAQIKDKGNAYAAYYAPSVKGRFTISRDDSKNSIYLQMNSLKTEDTAVYYCHYVHYASASTVLPAFGVDAWGQGTTVTVSS VL: DIVMTQSPLSLPVTPGEPASISCQASQELVHMNRNQYLHWYQQKPGQAPRLLIYKVSNRFPGVPDRFSGSGSGTDFTLKISRVEAEDVGVYYCAQGTSVPFTFGQGTKLEIK",0.5
6,"H183/L072 VL S93W (antibody, name in Kabat numbering, V domains shown, Dual-Ig) VH: QVQLVESGGGLVQPGRSLRLSCAASGFTFSNAWMHWVRQAPGKGLEWVAQIKDKGNAYAAYYAPSVKGRFTISRDDSKNSIYLQMNSLKTEDTAVYYCHYVHYASASTVLPAFGVDAWGQGTTVTVSS VL: DIVMTQSPLSLPVTPGEPASISCQASQELVHMNRNTYLHWYQQKPGQAPRLLIYKVSNRFPGVPDRFSGSGSGTDFTLKISRVEAEDVGVYYCAQGTWVPFTFGQGTKLEIK",1.2
7,"H183/L072 VL T31I (antibody, name in Kabat numbering, V domains shown, Dual-Ig) VH: QVQLVESGGGLVQPGRSLRLSCAASGFTFSNAWMHWVRQAPGKGLEWVAQIKDKGNAYAAYYAPSVKGRFTISRDDSKNSIYLQMNSLKTEDTAVYYCHYVHYASASTVLPAFGVDAWGQGTTVTVSS VL: DIVMTQSPLSLPVTPGEPASISCQASQELVHMNRNIYLHWYQQKPGQAPRLLIYKVSNRFPGVPDRFSGSGSGTDFTLKISRVEAEDVGVYYCAQGTSVPFTFGQGTKLEIK",0.9
8,"H183/L072 VL S93P (antibody, name in Kabat numbering, V domains shown, Dual-Ig) VH: QVQLVESGGGLVQPGRSLRLSCAASGFTFSNAWMHWVRQAPGKGLEWVAQIKDKGNAYAAYYAPSVKGRFTISRDDSKNSIYLQMNSLKTEDTAVYYCHYVHYASASTVLPAFGVDAWGQGTTVTVSS VL: DIVMTQSPLSLPVTPGEPASISCQASQELVHMNRNTYLHWYQQKPGQAPRLLIYKVSNRFPGVPDRFSGSGSGTDFTLKISRVEAEDVGVYYCAQGTPVPFTFGQGTKLEIK",0
9,"H183/L072 VL S93V (antibody, name in Kabat numbering, V domains shown, Dual-Ig) VH: QVQLVESGGGLVQPGRSLRLSCAASGFTFSNAWMHWVRQAPGKGLEWVAQIKDKGNAYAAYYAPSVKGRFTISRDDSKNSIYLQMNSLKTEDTAVYYCHYVHYASASTVLPAFGVDAWGQGTTVTVSS VL: DIVMTQSPLSLPVTPGEPASISCQASQELVHMNRNTYLHWYQQKPGQAPRLLIYKVSNRFPGVPDRFSGSGSGTDFTLKISRVEAEDVGVYYCAQGTVVPFTFGQGTKLEIK",1.1

# Results, then the binder that gave them:
row,fold change of affinity [fold],Binder
1,1.1,"H183/L072 VL S93K (antibody, name in Kabat numbering, V domains shown, Dual-Ig) VH: QVQLVESGGGLVQPGRSLRLSCAASGFTFSNAWMHWVRQAPGKGLEWVAQIKDKGNAYAAYYAPSVKGRFTISRDDSKNSIYLQMNSLKTEDTAVYYCHYVHYASASTVLPAFGVDAWGQGTTVTVSS VL: DIVMTQSPLSLPVTPGEPASISCQASQELVHMNRNTYLHWYQQKPGQAPRLLIYKVSNRFPGVPDRFSGSGSGTDFTLKISRVEAEDVGVYYCAQGTKVPFTFGQGTKLEIK"
2,0.5,"H183/L072 VL T31L (antibody, name in Kabat numbering, V domains shown, Dual-Ig) VH: QVQLVESGGGLVQPGRSLRLSCAASGFTFSNAWMHWVRQAPGKGLEWVAQIKDKGNAYAAYYAPSVKGRFTISRDDSKNSIYLQMNSLKTEDTAVYYCHYVHYASASTVLPAFGVDAWGQGTTVTVSS VL: DIVMTQSPLSLPVTPGEPASISCQASQELVHMNRNLYLHWYQQKPGQAPRLLIYKVSNRFPGVPDRFSGSGSGTDFTLKISRVEAEDVGVYYCAQGTSVPFTFGQGTKLEIK"
3,0.1,"H183/L072 VL T31D (antibody, name in Kabat numbering, V domains shown, Dual-Ig) VH: QVQLVESGGGLVQPGRSLRLSCAASGFTFSNAWMHWVRQAPGKGLEWVAQIKDKGNAYAAYYAPSVKGRFTISRDDSKNSIYLQMNSLKTEDTAVYYCHYVHYASASTVLPAFGVDAWGQGTTVTVSS VL: DIVMTQSPLSLPVTPGEPASISCQASQELVHMNRNDYLHWYQQKPGQAPRLLIYKVSNRFPGVPDRFSGSGSGTDFTLKISRVEAEDVGVYYCAQGTSVPFTFGQGTKLEIK"
4,1,"H183/L072 VL S93M (antibody, name in Kabat numbering, V domains shown, Dual-Ig) VH: QVQLVESGGGLVQPGRSLRLSCAASGFTFSNAWMHWVRQAPGKGLEWVAQIKDKGNAYAAYYAPSVKGRFTISRDDSKNSIYLQMNSLKTEDTAVYYCHYVHYASASTVLPAFGVDAWGQGTTVTVSS VL: DIVMTQSPLSLPVTPGEPASISCQASQELVHMNRNTYLHWYQQKPGQAPRLLIYKVSNRFPGVPDRFSGSGSGTDFTLKISRVEAEDVGVYYCAQGTMVPFTFGQGTKLEIK"
5,0.4,"H183/L072 VL T31E (antibody, name in Kabat numbering, V domains shown, Dual-Ig) VH: QVQLVESGGGLVQPGRSLRLSCAASGFTFSNAWMHWVRQAPGKGLEWVAQIKDKGNAYAAYYAPSVKGRFTISRDDSKNSIYLQMNSLKTEDTAVYYCHYVHYASASTVLPAFGVDAWGQGTTVTVSS VL: DIVMTQSPLSLPVTPGEPASISCQASQELVHMNRNEYLHWYQQKPGQAPRLLIYKVSNRFPGVPDRFSGSGSGTDFTLKISRVEAEDVGVYYCAQGTSVPFTFGQGTKLEIK"
6,1.1,"H183/L072 VL S93Q (antibody, name in Kabat numbering, V domains shown, Dual-Ig) VH: QVQLVESGGGLVQPGRSLRLSCAASGFTFSNAWMHWVRQAPGKGLEWVAQIKDKGNAYAAYYAPSVKGRFTISRDDSKNSIYLQMNSLKTEDTAVYYCHYVHYASASTVLPAFGVDAWGQGTTVTVSS VL: DIVMTQSPLSLPVTPGEPASISCQASQELVHMNRNTYLHWYQQKPGQAPRLLIYKVSNRFPGVPDRFSGSGSGTDFTLKISRVEAEDVGVYYCAQGTQVPFTFGQGTKLEIK"
7,0.2,"H183/L072 VL T31F (antibody, name in Kabat numbering, V domains shown, Dual-Ig) VH: QVQLVESGGGLVQPGRSLRLSCAASGFTFSNAWMHWVRQAPGKGLEWVAQIKDKGNAYAAYYAPSVKGRFTISRDDSKNSIYLQMNSLKTEDTAVYYCHYVHYASASTVLPAFGVDAWGQGTTVTVSS VL: DIVMTQSPLSLPVTPGEPASISCQASQELVHMNRNFYLHWYQQKPGQAPRLLIYKVSNRFPGVPDRFSGSGSGTDFTLKISRVEAEDVGVYYCAQGTSVPFTFGQGTKLEIK"
8,1,"H183/L072 VL S93R (antibody, name in Kabat numbering, V domains shown, Dual-Ig) VH: QVQLVESGGGLVQPGRSLRLSCAASGFTFSNAWMHWVRQAPGKGLEWVAQIKDKGNAYAAYYAPSVKGRFTISRDDSKNSIYLQMNSLKTEDTAVYYCHYVHYASASTVLPAFGVDAWGQGTTVTVSS VL: DIVMTQSPLSLPVTPGEPASISCQASQELVHMNRNTYLHWYQQKPGQAPRLLIYKVSNRFPGVPDRFSGSGSGTDFTLKISRVEAEDVGVYYCAQGTRVPFTFGQGTKLEIK"
9,1,"H183/L072 VL S93N (antibody, name in Kabat numbering, V domains shown, Dual-Ig) VH: QVQLVESGGGLVQPGRSLRLSCAASGFTFSNAWMHWVRQAPGKGLEWVAQIKDKGNAYAAYYAPSVKGRFTISRDDSKNSIYLQMNSLKTEDTAVYYCHYVHYASASTVLPAFGVDAWGQGTTVTVSS VL: DIVMTQSPLSLPVTPGEPASISCQASQELVHMNRNTYLHWYQQKPGQAPRLLIYKVSNRFPGVPDRFSGSGSGTDFTLKISRVEAEDVGVYYCAQGTNVPFTFGQGTKLEIK"
10,0.3,"H183/L072 VL T31M (antibody, name in Kabat numbering, V domains shown, Dual-Ig) VH: QVQLVESGGGLVQPGRSLRLSCAASGFTFSNAWMHWVRQAPGKGLEWVAQIKDKGNAYAAYYAPSVKGRFTISRDDSKNSIYLQMNSLKTEDTAVYYCHYVHYASASTVLPAFGVDAWGQGTTVTVSS VL: DIVMTQSPLSLPVTPGEPASISCQASQELVHMNRNMYLHWYQQKPGQAPRLLIYKVSNRFPGVPDRFSGSGSGTDFTLKISRVEAEDVGVYYCAQGTSVPFTFGQGTKLEIK"
11,0.4,"H183/L072 VL T31A (antibody, name in Kabat numbering, V domains shown, Dual-Ig) VH: QVQLVESGGGLVQPGRSLRLSCAASGFTFSNAWMHWVRQAPGKGLEWVAQIKDKGNAYAAYYAPSVKGRFTISRDDSKNSIYLQMNSLKTEDTAVYYCHYVHYASASTVLPAFGVDAWGQGTTVTVSS VL: DIVMTQSPLSLPVTPGEPASISCQASQELVHMNRNAYLHWYQQKPGQAPRLLIYKVSNRFPGVPDRFSGSGSGTDFTLKISRVEAEDVGVYYCAQGTSVPFTFGQGTKLEIK"
12,0.4,"H183/L072 VL T31K (antibody, name in Kabat numbering, V domains shown, Dual-Ig) VH: QVQLVESGGGLVQPGRSLRLSCAASGFTFSNAWMHWVRQAPGKGLEWVAQIKDKGNAYAAYYAPSVKGRFTISRDDSKNSIYLQMNSLKTEDTAVYYCHYVHYASASTVLPAFGVDAWGQGTTVTVSS VL: DIVMTQSPLSLPVTPGEPASISCQASQELVHMNRNKYLHWYQQKPGQAPRLLIYKVSNRFPGVPDRFSGSGSGTDFTLKISRVEAEDVGVYYCAQGTSVPFTFGQGTKLEIK"

# Source: patent publication US20210388087A1 (Chugai, published 2021)
